The values that follow come from US20210252150A1.

In assay [1] the target is HA of A/Texas/50/2012 (H3N2) (influenza A virus (H3N2)).
The target of assay [2] is HA of A/Texas/36/1991 (H1N1) (influenza A virus (H1N1)).
Assay [3] deals with HA of A/Solomon Islands/03/2006 (H1N1) (influenza A virus (H1N1)).

A value given as a limit tells only on which side of the number the result lay.

As for “rFluA-20 heavy chain mutant C101A (antibody)”, the EC50 in assay [1] came out at 0.39 µg/mL; in assay [2] it was 0.15 µg/mL; in assay [3] it was 0.2 µg/mL.
For “rFluA-20 light chain mutant N53A (antibody)” the same measures were 0.09 µg/mL, 0.04 µg/mL and 0.05 µg/mL.
Take “rFluA-20 light chain mutant Q55A (antibody)”: the EC50 in assay [2] is 0.23 µg/mL. For the same substance, the EC50 fold over wild-type rFluA-20 in assay [3] is more than 100 fold.

Usually EC50 stands for the concentration giving half of the maximal effect. Read a low EC50 as an effect from little substance.
